Laboratory results: patent publication US20260008815A1, “CYCLIC PEPTIDE OR SALT THEREOF, AND USES THEREOF” (FUJIFILM Corporation, priority 2023, published 2026)
Bridge positions count the residues as written; N and C are the ends. Ends that are not written are not given here. COCH2 = acetyl group that carries the bridge

B1: cyclic peptide SEQ ID NO: 327 (peptide)
peptide: YCEENYADPEQYQYFIYFK(COCH2)Y
modifications: thioether 2-19 (inferred)
B2: cyclic peptide SEQ ID NO: 328 (peptide)
peptide: YCEENYLAPEQYQYFIYFK(COCH2)Y
modifications: thioether 2-19 (inferred)
B3: cyclic peptide SEQ ID NO: 329 (peptide)
peptide: YCEENYLDAEQYQYFIYFK(COCH2)Y
modifications: thioether 2-19 (inferred)
B4: cyclic peptide SEQ ID NO: 330 (peptide)
peptide: YCEENYLDPAQYQYFIYFK(COCH2)Y
modifications: thioether 2-19 (inferred)
B5: cyclic peptide SEQ ID NO: 331 (peptide)
peptide: YCEENYLDPEQYAYFIYFK(COCH2)Y
modifications: thioether 2-19
B6: cyclic peptide SEQ ID NO: 332 (peptide)
peptide: YCEENYLDPEQYQYFAYFK(COCH2)Y
modifications: thioether 2-19
B7: cyclic peptide SEQ ID NO: 333 (peptide)
peptide: YCEENYLDPEQYQYFIAFK(COCH2)Y
modifications: thioether 2-19
B8: cyclic peptide SEQ ID NO: 334 (peptide)
peptide: YCEENYLDPEQYQYFIYFK(COCH2)A
modifications: thioether 2-19
B9: cyclic peptide SEQ ID NO: 335 (peptide)
peptide: KCEENYLDPEQYQYFIYFK(COCH2)Y
modifications: thioether 2-19; not fully specified; printed as K-(C)-EENYLDPEQYQYFIYF-(K(acetyl))-Y
B10: cyclic peptide SEQ ID NO: 336 (peptide)
peptide: YCKENYLDPEQYQYFIYFK(COCH2)Y
modifications: thioether 2-19; not fully specified; printed as Y-(C)-KENYLDPEQYQYFIYF-(K(acetyl))-Y
B11: cyclic peptide SEQ ID NO: 337 (peptide)
peptide: YCEKNYLDPEQYQYFIYFK(COCH2)Y
modifications: thioether 2-19; not fully specified; printed as Y-(C)-EKNYLDPEQYQYFIYF-(K(acetyl))-Y
B12: cyclic peptide SEQ ID NO: 338 (peptide)
peptide: YCEENKLDPEQYQYFIYFK(COCH2)Y
modifications: thioether 2-19; not fully specified; printed as Y-(C)-EENKLDPEQYQYFIYF-(K(acetyl))-Y
B13: cyclic peptide SEQ ID NO: 339 (peptide)
peptide: YCEENYKDPEQYQYFIYFK(COCH2)Y
modifications: thioether 2-19; not fully specified; printed as Y-(C)-EENYKDPEQYQYFIYF-(K(acetyl))-Y
B14: cyclic peptide SEQ ID NO: 340 (peptide)
peptide: YCEENYLKPEQYQYFIYFK(COCH2)Y
modifications: thioether 2-19; not fully specified; printed as Y-(C)-EENYLKPEQYQYFIYF-(K(acetyl))-Y
B15: cyclic peptide SEQ ID NO: 341 (peptide)
peptide: YCEENYLDKEQYQYFIYFK(COCH2)Y
modifications: thioether 2-19; not fully specified; printed as Y-(C)-EENYLDKEQYQYFIYF-(K(acetyl))-Y
B16: cyclic peptide SEQ ID NO: 342 (peptide)
peptide: YCEENYLDPKQYQYFIYFK(COCH2)Y
modifications: thioether 2-19; not fully specified; printed as Y-(C)-EENYLDPKQYQYFIYF-(K(acetyl))-Y
B17: cyclic peptide SEQ ID NO: 343 (peptide)
peptide: YCEENYLDPEQYKYFIYFK(COCH2)Y
modifications: thioether 2-19; not fully specified; printed as Y-(C)-EENYLDPEQYKYFIYF-(K(acetyl))-Y
B18: cyclic peptide SEQ ID NO: 344 (peptide)
peptide: YCEENYLDPEQYQYFKYFK(COCH2)Y
modifications: thioether 2-19; not fully specified; printed as Y-(C)-EENYLDPEQYQYFKYF-(K(acetyl))-Y
B19: cyclic peptide SEQ ID NO: 345 (peptide)
peptide: YCEENYLDPEQYQYFIKFK(COCH2)Y
modifications: thioether 2-19; not fully specified; printed as Y-(C)-EENYLDPEQYQYFIKF-(K(acetyl))-Y
B20: cyclic peptide SEQ ID NO: 346 (peptide)
peptide: YCEENYLDPEQYQYFIYFK(COCH2)K
modifications: thioether 2-19; not fully specified; printed as Y-(C)-EENYLDPEQYQYFIYF-(K(acetyl))-K
B21: cyclic peptide SEQ ID NO: 347 (peptide)
peptide: MCEENYLDPEQYQYFIYFK(COCH2)Y
modifications: thioether 2-19
B22: cyclic peptide SEQ ID NO: 348 (peptide)
peptide: YCMENYLDPEQYQYFIYFK(COCH2)Y
modifications: thioether 2-19
B23: cyclic peptide SEQ ID NO: 349 (peptide)
peptide: YCEMNYLDPEQYQYFIYFK(COCH2)Y
modifications: thioether 2-19
B24: cyclic peptide SEQ ID NO: 350 (peptide)
peptide: YCEENMLDPEQYQYFIYFK(COCH2)Y
modifications: thioether 2-19
B25: cyclic peptide SEQ ID NO: 351 (peptide)
peptide: YCEENYMDPEQYQYFIYFK(COCH2)Y
modifications: thioether 2-19
B26: cyclic peptide SEQ ID NO: 352 (peptide)
peptide: YCEENYLMPEQYQYFIYFK(COCH2)Y
modifications: thioether 2-19
B27: cyclic peptide SEQ ID NO: 353 (peptide)
peptide: YCEENYLDMEQYQYFIYFK(COCH2)Y
modifications: thioether 2-19
B28: cyclic peptide SEQ ID NO: 354 (peptide)
peptide: YCEENYLDPMQYQYFIYFK(COCH2)Y
modifications: thioether 2-19
B29: cyclic peptide SEQ ID NO: 355 (peptide)
peptide: YCEENYLDPEQMQYFIYFK(COCH2)Y
modifications: thioether 2-19
B30: cyclic peptide SEQ ID NO: 356 (peptide)
peptide: YCEENYLDPEQYMYFIYFK(COCH2)Y
modifications: thioether 2-19
B31: cyclic peptide SEQ ID NO: 357 (peptide)
peptide: YCEENYLDPEQYQMFIYFK(COCH2)Y
modifications: thioether 2-19
B32: cyclic peptide SEQ ID NO: 358 (peptide)
peptide: YCEENYLDPEQYQYFMYFK(COCH2)Y
modifications: thioether 2-19
B33: cyclic peptide SEQ ID NO: 359 (peptide)
peptide: YCEENYLDPEQYQYFIMFK(COCH2)Y
modifications: thioether 2-19
B34: cyclic peptide SEQ ID NO: 360 (peptide)
peptide: YCEENYLDPEQYQYFIYFK(COCH2)M
modifications: thioether 2-19
B35: cyclic peptide SEQ ID NO: 390 (peptide)
peptide: YCEENYLDPEQYQYFHYFK(COCH2)R
modifications: thioether 2-19
B36: cyclic peptide SEQ ID NO: 391 (peptide)
peptide: YCEENYLDPEQYQYFHYFK(COCH2)H
modifications: thioether 2-19
B37: cyclic peptide SEQ ID NO: 392 (peptide)
peptide: YCHENYLDPEQYQYFHYFK(COCH2)Y
modifications: thioether 2-19
B38: cyclic peptide SEQ ID NO: 393 (peptide)
peptide: YCHENYLDPEQHQYFHYFK(COCH2)Y
modifications: thioether 2-19
B39: cyclic peptide SEQ ID NO: 394 (peptide)
peptide: YCHENYLDPEQYQYFHYFK(COCH2)R
modifications: thioether 2-19
B40: cyclic peptide SEQ ID NO: 395 (peptide)
peptide: YCHENYLDPEQYQYFHYFK(COCH2)H
modifications: thioether 2-19
B41: cyclic peptide SEQ ID NO: 396 (peptide)
peptide: YCEENYLDPEQHQYFIYFK(COCH2)R
modifications: thioether 2-19
B42: cyclic peptide SEQ ID NO: 397 (peptide)
peptide: YCEENYLDPEQHQYFIYFK(COCH2)H
modifications: thioether 2-19

Target: T1, Recombinant Human FGFR2 alpha (IIIc) Fc Chimera Protein, CF (R&D systems, 712-FR-050) (human, UniProt P21802 22-377)
T1 construct: bought; not shown: Fc part of the chimera
T1 sequence (P21802 22-377, change not shown): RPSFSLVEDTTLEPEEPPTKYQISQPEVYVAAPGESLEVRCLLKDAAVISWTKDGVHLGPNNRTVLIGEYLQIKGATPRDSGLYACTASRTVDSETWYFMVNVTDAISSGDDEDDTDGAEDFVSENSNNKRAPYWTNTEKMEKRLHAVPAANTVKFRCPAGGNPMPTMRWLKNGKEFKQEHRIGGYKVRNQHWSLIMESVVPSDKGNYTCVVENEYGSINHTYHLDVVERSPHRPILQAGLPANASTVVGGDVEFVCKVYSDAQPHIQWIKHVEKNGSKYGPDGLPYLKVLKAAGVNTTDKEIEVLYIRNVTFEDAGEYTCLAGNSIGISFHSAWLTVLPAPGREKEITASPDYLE
Test: ELISA on plate-bound FGFR2-Fc
Outline: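 Plate-immobilized FGFR2 alpha (IIIc)-Fc (5 ng/well) incubated with peptide 3 h at room temperature, then anti-Myc antibody 2 h and chemiluminescent ELISA substrate. Signal corrected by subtracting FGFR-free wells; binding affinity scored into categories from the dose-response.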

ELISA luminescence signal at 10 nmol/L peptide, relative to SEQ ID NO: 47 (=1) [ratio] | Binder
0.1 to 0.5 | B1
≥ 0.7 | B2
≥ 0.7 | B3
≥ 0.7 | B4
≥ 0.7 | B5
≥ 0.7 | B6
≥ 0.7 | B7
≥ 0.7 | B8
≥ 0.7 | B9
≥ 0.7 | B10
≥ 0.7 | B11
0.1 to 0.5 | B12
≥ 0.7 | B13
0.1 to 0.5 | B14
≥ 0.7 | B15
≥ 0.7 | B16
≥ 0.7 | B17
≥ 0.7 | B18
≥ 0.7 | B19
≥ 0.7 | B20
≥ 0.7 | B21

ELISA luminescence signal at 10 nmol/L peptide, relative to SEQ ID NO: 47 (=1) [ratio] | Binder
≥ 0.7 | B22
≥ 0.7 | B23
≥ 0.7 | B24
≥ 0.7 | B25
≥ 0.7 | B26
≥ 0.7 | B27
≥ 0.7 | B28
0.1 to 0.5 | B29
≥ 0.7 | B30
0.1 to 0.5 | B31
≥ 0.7 | B32
≥ 0.7 | B33
≥ 0.7 | B34
0.1 to 0.5 | B35
≥ 0.7 | B36
≥ 0.7 | B37
0.1 to 0.5 | B38
0.5 to 0.7 | B39
≥ 0.7 | B40
0.5 to 0.7 | B41
≥ 0.7 | B42
